Laboratory results reported in IntAct's records for PubMed 9881977.

B1: Early protein (Human adenovirus C serotype 5 (HAdV-5)), P03255-2 (parent)
chain: MRHIICHGGVITEEMAASLLDQLIEEVLADNLPPPSHFEPPTLHELYDLDVTAPEDPNEEAVSQIFPDSVMLAVQEGIDLLTFPPAPGSPEPPHLSRQPEQPEQRALGPVSMPNLVPEVIDLTCHEAGFPPSDDEDEEGPVSEPEPEPEPEPEPARPTRRPKMAPAILRRPTSPVSRECNSSTDSCDSGPSNTPPEIHPVVPLCPIKPVAVRVGGRRQAVECIEDLLNEPGQPLDLSCKRPRP
B2: Early protein (Human adenovirus C serotype 5 (HAdV-5)), P03255-2 (parent)
chain: B1 chain
partner: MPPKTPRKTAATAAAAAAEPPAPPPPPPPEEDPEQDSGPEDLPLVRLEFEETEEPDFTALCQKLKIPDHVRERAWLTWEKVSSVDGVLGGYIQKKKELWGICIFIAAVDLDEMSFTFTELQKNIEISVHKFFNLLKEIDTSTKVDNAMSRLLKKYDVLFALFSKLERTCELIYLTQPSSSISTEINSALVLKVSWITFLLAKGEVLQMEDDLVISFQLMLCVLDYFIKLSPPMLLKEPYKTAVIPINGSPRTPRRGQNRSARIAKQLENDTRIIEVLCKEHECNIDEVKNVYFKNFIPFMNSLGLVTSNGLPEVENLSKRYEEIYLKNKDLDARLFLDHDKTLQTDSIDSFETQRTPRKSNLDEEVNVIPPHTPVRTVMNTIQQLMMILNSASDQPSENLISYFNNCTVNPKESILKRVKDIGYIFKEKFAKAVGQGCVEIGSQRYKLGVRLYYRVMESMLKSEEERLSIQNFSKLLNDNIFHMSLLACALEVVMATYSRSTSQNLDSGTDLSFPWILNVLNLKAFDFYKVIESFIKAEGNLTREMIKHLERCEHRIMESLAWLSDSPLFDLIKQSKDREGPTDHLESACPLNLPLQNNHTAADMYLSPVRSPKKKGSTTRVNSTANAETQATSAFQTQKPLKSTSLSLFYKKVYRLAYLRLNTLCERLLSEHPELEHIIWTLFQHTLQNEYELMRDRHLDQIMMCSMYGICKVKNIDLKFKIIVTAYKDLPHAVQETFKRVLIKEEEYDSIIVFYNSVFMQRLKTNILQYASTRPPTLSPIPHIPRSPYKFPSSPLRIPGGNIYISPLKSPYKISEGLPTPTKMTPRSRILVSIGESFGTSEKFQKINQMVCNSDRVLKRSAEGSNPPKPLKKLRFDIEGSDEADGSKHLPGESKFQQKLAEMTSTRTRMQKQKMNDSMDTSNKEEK

Variants of: B1
Details: with ep300_human EP300, Q09472
Sequence of ep300_human EP300, Q09472 (Q09472 whole entry): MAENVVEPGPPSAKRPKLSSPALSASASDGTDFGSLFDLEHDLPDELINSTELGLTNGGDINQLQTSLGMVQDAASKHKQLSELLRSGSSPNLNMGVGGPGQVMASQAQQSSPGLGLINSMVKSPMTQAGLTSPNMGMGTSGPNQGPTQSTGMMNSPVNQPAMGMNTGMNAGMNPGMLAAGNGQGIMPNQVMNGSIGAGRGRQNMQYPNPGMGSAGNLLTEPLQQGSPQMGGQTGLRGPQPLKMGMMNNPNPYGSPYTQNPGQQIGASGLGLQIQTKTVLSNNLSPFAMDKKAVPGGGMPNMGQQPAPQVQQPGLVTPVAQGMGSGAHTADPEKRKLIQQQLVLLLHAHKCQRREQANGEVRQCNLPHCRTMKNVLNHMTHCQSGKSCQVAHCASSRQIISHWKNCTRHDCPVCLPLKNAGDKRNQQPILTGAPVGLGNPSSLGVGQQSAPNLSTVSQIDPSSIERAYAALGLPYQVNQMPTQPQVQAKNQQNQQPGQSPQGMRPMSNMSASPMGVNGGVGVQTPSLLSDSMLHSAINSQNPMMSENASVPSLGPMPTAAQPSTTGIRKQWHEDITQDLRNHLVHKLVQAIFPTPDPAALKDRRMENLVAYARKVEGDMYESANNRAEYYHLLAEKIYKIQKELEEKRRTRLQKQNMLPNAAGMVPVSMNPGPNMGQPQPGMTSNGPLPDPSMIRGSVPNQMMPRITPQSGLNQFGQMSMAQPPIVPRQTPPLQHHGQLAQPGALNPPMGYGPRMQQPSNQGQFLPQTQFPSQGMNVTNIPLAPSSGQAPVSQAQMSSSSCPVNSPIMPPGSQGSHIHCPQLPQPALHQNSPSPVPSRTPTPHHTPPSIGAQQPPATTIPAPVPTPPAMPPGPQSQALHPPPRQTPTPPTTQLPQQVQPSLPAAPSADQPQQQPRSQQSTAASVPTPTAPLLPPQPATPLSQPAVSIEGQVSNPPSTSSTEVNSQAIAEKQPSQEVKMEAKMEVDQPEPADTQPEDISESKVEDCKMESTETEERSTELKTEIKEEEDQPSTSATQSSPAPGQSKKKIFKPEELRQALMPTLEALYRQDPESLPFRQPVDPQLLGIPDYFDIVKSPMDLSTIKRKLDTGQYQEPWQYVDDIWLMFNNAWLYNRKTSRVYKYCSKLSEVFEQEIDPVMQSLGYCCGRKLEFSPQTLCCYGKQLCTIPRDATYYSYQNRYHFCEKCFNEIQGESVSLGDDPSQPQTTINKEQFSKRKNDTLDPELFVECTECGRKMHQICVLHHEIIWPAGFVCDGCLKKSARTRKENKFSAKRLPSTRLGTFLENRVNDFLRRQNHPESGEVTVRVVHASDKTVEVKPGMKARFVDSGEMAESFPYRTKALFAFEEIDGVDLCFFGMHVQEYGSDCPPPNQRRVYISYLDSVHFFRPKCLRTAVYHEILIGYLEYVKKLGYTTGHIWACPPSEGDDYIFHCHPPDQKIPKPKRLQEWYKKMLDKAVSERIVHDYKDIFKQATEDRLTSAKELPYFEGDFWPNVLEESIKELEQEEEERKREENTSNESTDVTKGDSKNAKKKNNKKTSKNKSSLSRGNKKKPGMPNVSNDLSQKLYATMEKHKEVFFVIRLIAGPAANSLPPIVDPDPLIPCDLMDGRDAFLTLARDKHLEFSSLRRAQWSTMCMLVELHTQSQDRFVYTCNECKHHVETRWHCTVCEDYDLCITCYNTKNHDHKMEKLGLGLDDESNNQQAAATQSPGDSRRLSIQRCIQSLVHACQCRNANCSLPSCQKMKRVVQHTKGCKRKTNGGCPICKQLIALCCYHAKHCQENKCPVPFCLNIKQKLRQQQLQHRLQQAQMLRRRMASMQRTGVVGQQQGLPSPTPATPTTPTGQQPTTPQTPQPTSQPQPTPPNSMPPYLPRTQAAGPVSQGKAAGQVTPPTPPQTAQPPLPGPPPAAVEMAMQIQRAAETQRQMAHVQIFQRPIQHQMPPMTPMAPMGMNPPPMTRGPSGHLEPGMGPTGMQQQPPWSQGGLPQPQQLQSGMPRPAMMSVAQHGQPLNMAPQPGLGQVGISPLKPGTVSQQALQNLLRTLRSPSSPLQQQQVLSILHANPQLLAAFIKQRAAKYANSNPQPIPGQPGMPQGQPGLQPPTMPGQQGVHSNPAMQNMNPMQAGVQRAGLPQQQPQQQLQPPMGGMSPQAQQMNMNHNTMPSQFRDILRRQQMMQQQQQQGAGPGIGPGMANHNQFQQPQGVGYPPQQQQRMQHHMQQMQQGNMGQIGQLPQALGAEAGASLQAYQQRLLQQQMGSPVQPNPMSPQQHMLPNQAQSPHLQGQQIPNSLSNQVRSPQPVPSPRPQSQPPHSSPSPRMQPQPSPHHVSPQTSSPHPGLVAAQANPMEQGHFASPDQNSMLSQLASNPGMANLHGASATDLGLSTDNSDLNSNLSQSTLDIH

Row | Variant | effect of a mutation on the interaction
1 | R2G | disrupting interaction

Variants of: B1
Details: with stat1_human STAT1, P42224
Sequence of stat1_human STAT1, P42224 (P42224 whole entry): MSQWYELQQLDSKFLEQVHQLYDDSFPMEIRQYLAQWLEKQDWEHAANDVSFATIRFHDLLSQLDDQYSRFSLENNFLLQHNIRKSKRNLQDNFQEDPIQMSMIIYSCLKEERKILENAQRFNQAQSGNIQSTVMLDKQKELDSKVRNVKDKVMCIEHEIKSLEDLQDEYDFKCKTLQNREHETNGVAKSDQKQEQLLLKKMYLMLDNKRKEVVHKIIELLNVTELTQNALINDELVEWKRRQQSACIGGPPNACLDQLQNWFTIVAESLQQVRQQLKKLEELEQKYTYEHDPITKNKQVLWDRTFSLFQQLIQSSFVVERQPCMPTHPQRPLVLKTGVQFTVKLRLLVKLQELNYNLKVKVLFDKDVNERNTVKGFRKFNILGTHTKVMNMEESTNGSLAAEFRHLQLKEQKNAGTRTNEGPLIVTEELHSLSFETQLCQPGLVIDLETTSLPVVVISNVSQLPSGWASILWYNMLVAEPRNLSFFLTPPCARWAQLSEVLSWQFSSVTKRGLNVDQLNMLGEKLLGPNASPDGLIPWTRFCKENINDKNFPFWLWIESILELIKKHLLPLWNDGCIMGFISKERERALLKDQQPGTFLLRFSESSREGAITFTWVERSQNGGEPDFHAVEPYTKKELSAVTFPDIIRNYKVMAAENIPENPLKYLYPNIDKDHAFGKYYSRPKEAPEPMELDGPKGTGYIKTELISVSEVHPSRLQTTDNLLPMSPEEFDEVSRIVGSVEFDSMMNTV

Row | Variant | effect of a mutation on the interaction
2 | R2G | decreasing interaction

Variants of: B2
Details: with rb_human RB1, P06400

Row | Variant | effect of a mutation on the interaction
3 | R2G | decreasing interaction
